The target of series [1] is T1, CspL (Bacillus coagulans 2-6, UniProt A0A0C5C4D7 1-67). As to the kind of experiment: BLI; BLI, streptavidin sensor with 5'-biotin oligo; 20 mM PBS pH 7.4, 100 mM NaCl, 0.1% BSA, 0.02% Tween 20; CspL 20 ug/ml; temperature not in the material. The settings on record: protein: recombinant, tags: His, label: 5'-biotin.
Series [2] addresses T1, CspL. As to the kind of experiment: BLI; 2100, 210 nM CspL; binding lost at 21 nM; BLI, streptavidin sensor with 5'-biotin oligo; 20 mM PBS pH 7.4, 100 mM NaCl, 0.1% BSA, 0.02% Tween 20; CspL 20 ug/ml; temperature not in the material. To be noted: protein: recombinant; tags: His; label: 5'-biotin.

B1: dsDNA random (dsDNA)
DNA 1: CCGCAGATCCAGACGAGAGC
DNA 2: GCTCTCGTCTGGATCTGCGG
As for B1, in series [1] (blunt), the binding result is “no binding”. In the case of GAGACCGGAATTCGAGCT (ssDNA) [18 nt ssDNA (ssDNA 5)], the binding result in series [2] is on record as “binds”. On to CCGCAGAGAACGACGAGAGC (ssDNA) [ssDNA gaaC], for which the binding result in series [1] was “binds”. Regarding CCGCAGATCCAGACGAGAGC (ssDNA) [ssDNA random], the binding result in series [1] is on record as “binds”.

B2: dsDNA gaaC (dsDNA)
DNA 1: CCGCAGAGAACGACGAGAGC
DNA 2: GCTCTCGTCGTTCTCTGCGG
Regarding B2, the binding result in series [1] (blunt) is recorded as “no binding”.
